Source: patent publication US20260242735A1 (UNIVERSIT T BASEL, published 2026)

How the values were obtained:
human CD33 D18A = human CD33 D18A (human, UniProt P20138 19-364); assay: flow cytometry, alanine scan
human CD33 P19A = human CD33 P19A (human, UniProt P20138 18-364); assay: flow cytometry, alanine scan
human CD33 N20A = human CD33 N20A (human, UniProt P20138 18-364); assay: flow cytometry, alanine scan
human CD33 F21A = human CD33 F21A (human, UniProt P20138 18-364); assay: flow cytometry, alanine scan
human CD33 W22A = human CD33 W22A (human, UniProt P20138 18-364); assay: flow cytometry, alanine scan
human CD33 L23A = human CD33 L23A (human, UniProt P20138 18-364); assay: flow cytometry, alanine scan
human CD33 E27A = human CD33 E27A (human, UniProt P20138 18-364); assay: flow cytometry, alanine scan
human CD33 S28A = human CD33 S28A (human, UniProt P20138 18-364); assay: flow cytometry, alanine scan
human CD33 V29A = human CD33 V29A (human, UniProt P20138 18-364); assay: flow cytometry, alanine scan
human CD33 T30A = human CD33 T30A (human, UniProt P20138 18-364); assay: flow cytometry, alanine scan
human CD33 V31A = human CD33 V31A (human, UniProt P20138 18-364); assay: flow cytometry, alanine scan
human CD33 Q32A = human CD33 Q32A (human, UniProt P20138 18-364); assay: flow cytometry, alanine scan
human CD33 E33A = human CD33 E33A (human, UniProt P20138 18-364); assay: flow cytometry, alanine scan
human CD33 G34A = human CD33 G34A (human, UniProt P20138 18-364); assay: flow cytometry, alanine scan
human CD33 L35A = human CD33 L35A (human, UniProt P20138 18-364); assay: flow cytometry, alanine scan
human CD33 C36A = human CD33 C36A (human, UniProt P20138 18-364); assay: flow cytometry, alanine scan
human CD33 V37A = human CD33 V37A (human, UniProt P20138 18-364); assay: flow cytometry, alanine scan
human CD33 L38A = human CD33 L38A (human, UniProt P20138 18-364); assay: flow cytometry, alanine scan
human CD33 V39A = human CD33 V39A (human, UniProt P20138 18-364); assay: flow cytometry, alanine scan
human CD33 P40A = human CD33 P40A (human, UniProt P20138 18-364); assay: flow cytometry, alanine scan
human CD33 C41A = human CD33 C41A (human, UniProt P20138 18-364); assay: flow cytometry, alanine scan
human CD33 T42A = human CD33 T42A (human, UniProt P20138 18-364); assay: flow cytometry, alanine scan
human CD33 F43A = human CD33 F43A (human, UniProt P20138 18-364); assay: flow cytometry, alanine scan
human CD33 H45A = human CD33 H45A (human, UniProt P20138 18-364); assay: flow cytometry, alanine scan
human CD33 H346A = biological target: T1, human CD33 H346A (human, UniProt P20138 18-364); assay: alanine scan; flow cytometry, HEK293-T cells expressing the mutant; normalised to WT CD33;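 also: antibodies (IgG or Fab) at doses pre-set by titration on wild-type CD33, duplicate readings with background fluorescence subtracted, mutants made by site-directed alanine substitution (alanine changed to serine)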
T1 construct: Alanine-scan mutant clone of CD33 transiently transfected into HEK293-T cells
Method: (§1) An alanine scan on human CD33 was performed to the determine the residues on CD33 that are involved in binding to the antibodies investigated. […] Briefly, a mutation library of CD33 was created by high-throughput, site-directed mutagenesis. Each residue was individually mutated to alanine, with alanine codons mutated to serine. The mutant library was arrayed in 384-well microplates and transiently transfected into HEK293-T. Following transfection, cells were incubated with the indicated antibodies (IgG or Fab) at concentrations pre-determined using an independent immunofluorescence titration curve on wild type CD33. […] Binding of each antibody to each mutant clone was determined in duplicates. For each point, background fluorescence was subtracted from the raw data, which were then normalized to antibody reactivity with wild type CD33.
(§2) Critical residues for antibody binding (outlined in dark grey) were residues whose mutations led to a binding of the test Abs of less than 20%. Additional secondary residues (outlined in light grey) were identified that led to a binding of the test Abs of between 20 and 40% as compared to the wild type CD33.

human CD33 G347A = biological target: T2, human CD33 G347A (human, UniProt P20138 18-364); assay: as above
T2 construct: Alanine-scan mutant clone of CD33 transiently transfected into HEK293-T cells
Method: as §1, §2

human CD33 M348A = biological target: T3, human CD33 M348A (human, UniProt P20138 18-364); assay: as above
T3 construct: Alanine-scan mutant clone of CD33 transiently transfected into HEK293-T cells
Method: as §1, §2

human CD33 N349A = biological target: T4, human CD33 N349A (human, UniProt P20138 18-364); assay: as above
T4 construct: Alanine-scan mutant clone of CD33 transiently transfected into HEK293-T cells
Method: as §1, §2

human CD33 P350A = biological target: T5, human CD33 P350A (human, UniProt P20138 18-364); assay: as above
T5 construct: Alanine-scan mutant clone of CD33 transiently transfected into HEK293-T cells
Method: as §1, §2

human CD33 S351A = biological target: T6, human CD33 S351A (human, UniProt P20138 18-364); assay: as above
T6 construct: Alanine-scan mutant clone of CD33 transiently transfected into HEK293-T cells
Method: as §1, §2

human CD33 K352A = biological target: T7, human CD33 K352A (human, UniProt P20138 18-364); assay: as above
T7 construct: Alanine-scan mutant clone of CD33 transiently transfected into HEK293-T cells
Method: as §1, §2

human CD33 D353A = biological target: T8, human CD33 D353A (human, UniProt P20138 18-364); assay: as above
T8 construct: Alanine-scan mutant clone of CD33 transiently transfected into HEK293-T cells
Method: as §1, §2

human CD33 T354A = biological target: T9, human CD33 T354A (human, UniProt P20138 18-364); assay: as above
T9 construct: Alanine-scan mutant clone of CD33 transiently transfected into HEK293-T cells
Method: as §1, §2

human CD33 S355A = biological target: T10, human CD33 S355A (human, UniProt P20138 18-364); assay: as above
T10 construct: Alanine-scan mutant clone of CD33 transiently transfected into HEK293-T cells
Method: as §1, §2

human CD33 T356A = biological target: T11, human CD33 T356A (human, UniProt P20138 18-364); assay: as above
T11 construct: Alanine-scan mutant clone of CD33 transiently transfected into HEK293-T cells
Method: as §1, §2

human CD33 E357A = biological target: T12, human CD33 E357A (human, UniProt P20138 18-364); assay: as above
T12 construct: Alanine-scan mutant clone of CD33 transiently transfected into HEK293-T cells
Method: as §1, §2

human CD33 Y358A = biological target: T13, human CD33 Y358A (human, UniProt P20138 18-364); assay: as above
T13 construct: Alanine-scan mutant clone of CD33 transiently transfected into HEK293-T cells
Method: as §1, §2

human CD33 S359A = biological target: T14, human CD33 S359A (human, UniProt P20138 18-364); assay: as above
T14 construct: Alanine-scan mutant clone of CD33 transiently transfected into HEK293-T cells
Method: as §1, §2

human CD33 E360A = biological target: T15, human CD33 E360A (human, UniProt P20138 18-364); assay: as above
T15 construct: Alanine-scan mutant clone of CD33 transiently transfected into HEK293-T cells
Method: as §1, §2

human CD33 V361A = biological target: T16, human CD33 V361A (human, UniProt P20138 18-364); assay: as above
T16 construct: Alanine-scan mutant clone of CD33 transiently transfected into HEK293-T cells
Method: as §1, §2

human CD33 R362A = biological target: T17, human CD33 R362A (human, UniProt P20138 18-364); assay: as above
T17 construct: Alanine-scan mutant clone of CD33 transiently transfected into HEK293-T cells
Method: as §1, §2

human CD33 T363A = biological target: T18, human CD33 T363A (human, UniProt P20138 18-364); assay: as above
T18 construct: Alanine-scan mutant clone of CD33 transiently transfected into HEK293-T cells
Method: as §1, §2

human CD33 Q364A = biological target: T19, human CD33 Q364A (human, UniProt P20138 18-363); assay: as above
T19 construct: Alanine-scan mutant clone of CD33 transiently transfected into HEK293-T cells
Method: as §1, §2

human wild-type CD33 = biological target: T20, human wild-type CD33 (human, UniProt P20138 18-364); assay: flow cytometry, Fab at 0.50 ug/ml on HEK293-T cells expressing CD33 against vector alone
T20 construct: also called SIGLEC3; P67
T20 sequence (P20138 18-364 limits assumed): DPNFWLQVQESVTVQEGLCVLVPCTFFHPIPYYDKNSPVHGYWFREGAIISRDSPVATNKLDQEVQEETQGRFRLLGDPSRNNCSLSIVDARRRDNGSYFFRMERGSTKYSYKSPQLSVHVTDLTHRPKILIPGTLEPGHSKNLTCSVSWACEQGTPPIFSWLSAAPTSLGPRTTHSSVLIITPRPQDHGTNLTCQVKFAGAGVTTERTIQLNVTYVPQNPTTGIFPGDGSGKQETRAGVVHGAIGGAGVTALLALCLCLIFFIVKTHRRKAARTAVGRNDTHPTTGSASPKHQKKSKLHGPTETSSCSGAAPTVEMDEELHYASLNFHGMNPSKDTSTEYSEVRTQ
Method: Serial dilutions of each Fab were tested for immunoreactivity against cells expressing wild-type CD33 or vector alone. The optimal screening concentration for the Fabs was determined based on the raw signal values and signal-to-background calculations. Each point represents the mean of four replicates.

Chain of human CD33 V37A (P20138 18-364 V37A limits assumed): as the sequence (P20138 18-364 limits assumed) above, with V20A counted along it
Chain of human CD33 F21A (P20138 18-364 F21A limits assumed): as the sequence (P20138 18-364 limits assumed) above, with F4A counted along it
T14 sequence (P20138 18-364 S359A limits assumed): as the sequence (P20138 18-364 limits assumed) above, with S342A counted along it
T11 sequence (P20138 18-364 T356A limits assumed): as the sequence (P20138 18-364 limits assumed) above, with T339A counted along it
Chain of human CD33 E33A (P20138 18-364 E33A limits assumed): as the sequence (P20138 18-364 limits assumed) above, with E16A counted along it
T17 sequence (P20138 18-364 R362A limits assumed): as the sequence (P20138 18-364 limits assumed) above, with R345A counted along it
Chain of human CD33 V39A (P20138 18-364 V39A limits assumed): as the sequence (P20138 18-364 limits assumed) above, with V22A counted along it
T12 sequence (P20138 18-364 E357A limits assumed): as the sequence (P20138 18-364 limits assumed) above, with E340A counted along it
T19 sequence (P20138 18-364 Q364A limits assumed): as the sequence (P20138 18-364 limits assumed) above, with Q347A counted along it
T8 sequence (P20138 18-364 D353A limits assumed): as the sequence (P20138 18-364 limits assumed) above, with D336A counted along it
Chain of human CD33 D18A (P20138 18-364 D18A limits assumed): as the sequence (P20138 18-364 limits assumed) above, with D1A counted along it
Chain of human CD33 H45A (P20138 18-364 H45A limits assumed): as the sequence (P20138 18-364 limits assumed) above, with H28A counted along it
Chain of human CD33 L35A (P20138 18-364 L35A limits assumed): as the sequence (P20138 18-364 limits assumed) above, with L18A counted along it

B1: Refmab #6 (antibody, V domains shown)
VH: QVQLQQPGAEVVKPGASVKMSCKASGYTFTSYYIHWIKQTPGQGLEWVGVIYPGNDDISYNQKFQGKATLTADKSSTTAYMQLSSLTSEDSAVYYCAREVRLRYFDVWGQGTTVTVSS
VL: EIVLTQSPGSLAVSPGERVTMSCKSSQSVFFSSSQKNYLAWYQQIPGQSPRLLIYWASTRESGVPDRFTGSGSGTDFTLTISSVQPEDLAIYYCHQYLSSRTFGQGTKLEIK
notes: The alanine scan used IgG or Fab
Human CD33 D18A
  Mean % WT Binding: 39.5 % of WT
Human CD33 P19A
  Mean % WT Binding: 87.4 % of WT
Human CD33 N20A
  Mean % WT Binding: 92.9 % of WT
Human CD33 F21A
  Mean % WT Binding: 88.1 % of WT
Human CD33 W22A
  Mean % WT Binding: 3.8 % of WT
Human CD33 L23A
  Mean % WT Binding: 41.4 % of WT
Human CD33 E27A
  Mean % WT Binding: 92.6 % of WT
Human CD33 S28A
  Mean % WT Binding: 89.4 % of WT
Human CD33 V29A
  Mean % WT Binding: 112 % of WT
Human CD33 T30A
  Mean % WT Binding: 104 % of WT
Human CD33 V31A
  Mean % WT Binding: 105 % of WT
Human CD33 Q32A
  Mean % WT Binding: 91.3 % of WT
Human CD33 E33A
  Mean % WT Binding: 90 % of WT
Human CD33 G34A
  Mean % WT Binding: 100 % of WT
Human CD33 L35A
  Mean % WT Binding: 97.2 % of WT
Human CD33 C36A
  Mean % WT Binding: 110 % of WT
Human CD33 V37A
  Mean % WT Binding: 111 % of WT
Human CD33 L38A
  Mean % WT Binding: 105 % of WT
Human CD33 V39A
  Mean % WT Binding: 79.2 % of WT
Human CD33 P40A
  Mean % WT Binding: 55.5 % of WT
Human CD33 C41A
  Mean % WT Binding: 4.5 % of WT
Human CD33 T42A
  Mean % WT Binding: 36.6 % of WT
Human CD33 F43A
  Mean % WT Binding: 34.6 % of WT
Human CD33 H45A
  Mean % WT Binding: 87.8 % of WT

B2: Refmab #6 (antibody, V domains shown)
VH: B1 VH
VL: B1 VL
notes: Full-length format is human IgG1 Fc silent (PG-LALA); The alanine scan used IgG or Fab
Human CD33 H346A
  Mean % WT Binding: 104 % WT binding
Human CD33 G347A
  Mean % WT Binding: 95.2 % WT binding
Human CD33 M348A
  Mean % WT Binding: 101 % WT binding
Human CD33 N349A
  Mean % WT Binding: 91 % WT binding
Human CD33 P350A
  Mean % WT Binding: 108 % WT binding
Human CD33 S351A
  Mean % WT Binding: 112 % WT binding
Human CD33 K352A
  Mean % WT Binding: 94.1 % WT binding
Human CD33 D353A
  Mean % WT Binding: 92.1 % WT binding
Human CD33 T354A
  Mean % WT Binding: 99.3 % WT binding
Human CD33 S355A
  Mean % WT Binding: 98.9 % WT binding
Human CD33 T356A
  Mean % WT Binding: 99.5 % WT binding
Human CD33 E357A
  Mean % WT Binding: 91.2 % WT binding
Human CD33 Y358A
  Mean % WT Binding: 92 % WT binding
Human CD33 S359A
  Mean % WT Binding: 82.5 % WT binding
Human CD33 E360A
  Mean % WT Binding: 93.5 % WT binding
Human CD33 V361A
  Mean % WT Binding: 76 % WT binding
Human CD33 R362A
  Mean % WT Binding: 107 % WT binding
Human CD33 T363A
  Mean % WT Binding: 105 % WT binding
Human CD33 Q364A
  Mean % WT Binding: 94.4 % WT binding

B3: Refmab #4 Fab fragment (Fab, V domains shown)
VH: QVQLVQSGAEVKKPGESVKVSCKASGYTFTNYGMNWVKQAPGQGLEWMGWINTYTGEPTYADKFQGRVTMTTDTSTSTAYMEIRNLGGDDTAVYYCARWSWSDGYYVYFDYWGQGTSVTVSS
VL: DIVMTQSPDSLTVSLGERTTINCKSSQSVLDSSTNKNSLAWYQQKPGQPPKLLLSWASTRESGIPDRFSGSGSGTDFTLTIDSPQPEDSATYYCQQSAHFPITFGQGTRLEIK
Human wild-type CD33
  Signal:Background: 33 signal:background ratio
